Measured values taken from the supplement of paper PMC9732359.
± gives the uncertainty stated by the source.

Assay: protein stability index of a GFP-peptide fusion (yeast GPS) (PSI 1-4); higher = more stable; sorted into four equal gates, so the index is relative within each strain
Conditions: san1∆
Method in brief: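 Tiled 17-residue peptides from yeast proteins were fused downstream of GFP on a plasmid that also expresses Cherry, and the pooled library was carried in yeast. Mid-log cultures grown in leucine-free medium were sorted into four equal gates by GFP/Cherry fluorescence ratio. Plasmids from each gate were PCR-amplified and Illumina-sequenced, and reads were assigned to strains by barcodes. Each peptide's protein stability index is the sum, over gates, of the gate's read frequency multiplied by its gate number.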

| Sequence | protein stability index |
| --- | --- |
| CEQQPSQEREFSLLVKA [SIN4] | 2.94 ± 0.054 |

Same assay, conditions: ubr1∆

| Sequence | protein stability index |
| --- | --- |
| AHVNKVTEETTKQIQSV [SIR4] | 2.53 ± 0.061 |
| AIIRLHPSIYTQVFNIL [POP1] | 1.22 ± 0.036 |
| AIMSKSSLEELLLKDQQ [ECM29] | 2.98 ± 0.05 |
| AINPGRVAASFSQEALQ [FAS1] | 1.98 ± 0.098 |
| AINVFPEGYKAKSISTS [RPO31] | 2.31 ± 0.059 |
| AIPNPEDVVAISSRTYG [RPS0B] | 3.09 ± 0.047 |
| AKAKRRHTTGTGRMRYL [RPL37A] | 3.62 ± 0.16 |
| AKDKEIYNKMIGVLNNS [RPN13] | 2.93 ± 0.065 |
| AKINEVYNNSKDEYLAQ [NSL1] | 2.75 ± 0.037 |
| AKKRKTLILIQNPENLL [SIR3] | 2.78 ± 0.096 |
| AKKTSTSVDGKKRSKVR [HTB2] | 3.31 ± 0.075 |
| AKLNHLKKLEKFMELER [SWI3] | 2.66 ± 0.058 |
| AKPDNLANFSNEVAMNN [SWP82] | 3.23 ± 0.067 |
| AKRDYIISRLNADFQKP [FAS1] | 3.22 ± 0.077 |
| AKYHAKLNKKLQHLRSR [SRP68] | 3.07 ± 0.059 |
| ALFLSKINRPPVSVSRI [RPL18A] | 2.16 ± 0.16 |
| ALGQDTEKMEEQLDLLS [MED11] | 3.31 ± 0.064 |
| ALHYLVPFIIAAMVIMH [COB] | 1.4 ± 0.055 |
| ALIKFMEYHISNTDETK [FAS2] | 2.3 ± 0.055 |
| ALKNACNSIINKLGALK [RPB11] | 3.17 ± 0.15 |
| ALLRSGRLDRKIEFPLP [RPT5] | 3.43 ± 0.18 |
| ALLTVLKALSHHYNPKT [BRR2] | 2.41 ± 0.062 |
| ALPDAVTIIEPKEEEPI [RPS3] | 3.04 ± 0.058 |
| ALPHVEINQVSLALVIR [RGR1] | 2.71 ± 0.086 |
| ALRRRVGPSEQNFAEED [REC8] | 3.24 ± 0.098 |

| Sequence | protein stability index |
| --- | --- |
| ALVAGIERYPSKVTKKH [RPL27B] | 1.96 ± 0.2 |
| ALYRVNDLRDMILNYNP [UBP6] | 2.99 ± 0.12 |
| AMFEICLKRGWGHPTRM [BRR2] | 2.96 ± 0.18 |
| AMHYSSNIELAFSSVEH [COB] | 2.09 ± 0.082 |
| AMIALSMILIQQTEKLN [RPN2] | 1.6 ± 0.064 |
| ANAVQNNNGNSAASKKK [SRP21] | 2.93 ± 0.11 |
| ANFKTSKKYQLADWRIR [RRP6] | 2.92 ± 0.1 |
| ANLRVLNSYWVNQDSTY [RPL15A] | 2.37 ± 0.064 |
| ANNNGSNLQRAQNVPMN [GAL11] | 3.09 ± 0.085 |
| ANNNINSASSAPTPAAP [SWI1] | 2.97 ± 0.064 |
| ANNQEYDLNFKLRETLV [SMC1] | 3.41 ± 0.21 |
| ANSESGHYQAFIRDELD [UBP6] | 2.66 ± 0.17 |
| ANSQIQAYEEIISSNEN [YIL149C/MLP2] | 3.45 ± 0.12 |
| ANSSITPAFGSNNTGNT [YJL041W/NSP1] | 2.87 ± 0.031 |
| ANTSNNLFGATANANKP [YJL041W/NSP1] | 3.22 ± 0.045 |
| ANVEILAVEDKPSPIDS [CSL4] | 3.12 ± 0.063 |
| ANVVDITNDWEQPCVDI [YJR042W/NUP85] | 3.12 ± 0.06 |
| ANYIKERTKNAQFIVIS [SMC4] | 2.27 ± 0.071 |
| APEIPEDLYYLIKKAVS [RPS13] | 2.69 ± 0.13 |
| APSIGRWYQLIATGCKD [YGL100W/SEH1] | 2.17 ± 0.071 |
| AQAQAQAQAQAQAQAQA [GAL11] | 3.09 ± 0.033 |
| AQAWINLGEYYAQIGDK [RPN7] | 2.76 ± 0.12 |
| AQDEVFSLAFSPNRYWL [ASC1] | 2.38 ± 0.19 |
| AQDFINAYASFLQRQGK [RPS19A] | 3 ± 0.046 |
| AQDFKTDLRFQSSAIGA [HHT1] | 1.3 ± 0.23 |

| Sequence | protein stability index |
| --- | --- |
| AQFIVISLRNNMFELAQ [SMC4] | 2.02 ± 0.09 |
| AQFVSNKQYHQANSNLT [NUT1] | 3.23 ± 0.092 |
| AQLTHSLRRIRDEMSKA [MED8] | 1.99 ± 0.052 |
| AQYGIKALPIRRDDEVL [RPL26A] | 3.28 ± 0.14 |
| ARAPKYASKAVPHYNRL [RPL25] | 2.98 ± 0.047 |
| ARENAPSIIFIDEVDSI [RPT3] | 2.41 ± 0.066 |
| ARKGLTPSQIGVLLRDA [RPS13] | 2.32 ± 0.041 |
| ARKHKLKTLVQGPRSYF [RPS27A] | 2.72 ± 0.19 |
| ARKYLQTRWGLPSGRQD [FAS2] | 3.16 ± 0.11 |
| ARLPPRATNCRKRKCGH [RPL40A] | 3.14 ± 0.11 |
| ARNLYIIAVKGSGSRLN [RPL23A] | 1.35 ± 0.042 |
| ARTAANSIYCPTQTVAE [RPN6] | 2.04 ± 0.045 |
| ASDMSDEDIITIFKYLT [CDC53] | 3.2 ± 0.061 |
| ASELDESKDSIQDLIVK [SMC3] | 3.33 ± 0.14 |
| ASEVATHSKLFADKKRD [PRP8] | 2.56 ± 0.068 |
| ASEYIETLGLKYLGLKP [FAS1] | 3.06 ± 0.089 |
| ASFFFMVMFMHMAKGLY [COB] | 1.4 ± 0.037 |
| ASGFGFGGSQPNSGTAT [YGR119C/NUP57] | 2.87 ± 0.094 |
| ASGSINRKVLQALEKIG [RPS19A] | 1.99 ± 0.066 |
| ASHNEKDQDSQIELSCN [SRP72] | 3.1 ± 0.058 |
| ASIGQAAEQQSKAFKES [SRP54] | 3.16 ± 0.082 |
| ASKSGKLTQKLVTAGVA [CYT1] | 1.95 ± 0.048 |
| ASLNALKESIKNSTSSM [RPN1] | 3.16 ± 0.076 |
| ASLQQQQQQDLQQQQQV [SNF6] | 2.69 ± 0.21 |
| ASRHGQKGTIGITYRRE [RPB2] | 2.22 ± 0.051 |

| Sequence | protein stability index |
| --- | --- |
| ASSKAVTRGISVLKDSD [PRE1] | 2.67 ± 0.052 |
| ASSSAKLIEKKSAYANT [SMC2] | 2.79 ± 0.042 |
| ASSWAKKIAQRERRAAL [RPL14A] | 2.22 ± 0.079 |
| ATDVEARAVQDNGESAF [RPL13A] | 2.85 ± 0.094 |
| ATFSVSQASSDLGETFR [CSL4] | 2.57 ± 0.041 |
| ATLYIPKALRFDRLVAG [FAS2] | 1.44 ± 0.09 |
| ATPGRLIDSLENHLLVM [PRP28] | 2.1 ± 0.06 |
| ATPQDAQFYLGKRIAYV [RPL33A] | 2.7 ± 0.075 |
| ATQSGGVRPFGVSLLIA [PRE8] | 1.51 ± 0.064 |
| ATSFSRKKARTFDSSWN [FAS2] | 3.05 ± 0.076 |
| AVAASSTKTGTPSDLSE [POP1] | 3.33 ± 0.035 |
| AVARLKSMNKSAINQYN [SNF2] | 2.88 ± 0.032 |
| AVCSTATVVSTNHSAAA [PGD1] | 2.91 ± 0.061 |
| AVDLEHHDYRSYYGIVC [RRP6] | 2.97 ± 0.038 |
| AVEFESVPLRKGDRALL [BRR2] | 2.87 ± 0.11 |
| AVTHNLYYDEDINVESL [PUP2] | 2.89 ± 0.06 |
| AVVQTVKGLLNTYKRLV [YJL039C/NUP192] | 2.45 ± 0.083 |
| AYIKLLDQTKDTRITHL [SNF2] | 2.39 ± 0.062 |
| AYILAAQKTSFEYEGVQ [RPN1] | 2.23 ± 0.08 |
| AYPAAREQFLNAQDIDH [FAS1] | 3.21 ± 0.054 |
| AYSNTNTNTENENRNTG [SNF11] | 2.95 ± 0.072 |
| CDILVATPGRLIDSLEN [PRP28] | 3.22 ± 0.065 |
| CEQQPSQEREFSLLVKA [SIN4] | 3.04 ± 0.045 |
